Experimental data: patent US20030152571A1 (GlaxoSmithKline, published 2003)

Assays:
[1] = target: T1, human vitronectin receptor αvβ3 purified from human placenta (human, UniProt P06756 31-1048; P05106 27-788); assay: BIAcore; immobilized αvβ3, mAb in solution
T1 construct: mature; Detergent-solubilised native heterodimer; also called αvβ3 receptor; human αvβ3 protein receptor
Description: (§1) The αᵥβ₃ was immobilized by inserting the αᵥβ₃ into a phospholipid vesicle and producing a hybrid bilayer membrane on a hydrophobic sensor surface. […] Samples of the mAbs were passed over this surface and the rates at which they bound and then dissociated from the surface were measured and analyzed using software provided with the instrument.

[2] = target: T1, human vitronectin receptor αvβ3 …; assay: BIAcore, αvβ3 immobilized in a hybrid bilayer membrane on the sensor surface, mAb in solution
Description: as §1

[3] = target: T2, human αvβ3 receptor on cells or in tissue (human, UniProt P06756 31-1048; P05106 27-788); assay: method not stated; reference is the rabbit αvβ3 receptor
T2 construct: whole, on cells; also called native cell surface receptor

[4] = target: rabbit αvβ3 receptor on rabbit smooth muscle cells (rabbit, UniProt A0A5F9DQF7 1-123); assay: cell-based or functional assay
[5] = target: T1, human vitronectin receptor αvβ3 …; assay: not stated ('depending on the assay employed')
[6] = target: T1, human vitronectin receptor αvβ3 …; assay: BIAcore; αvβ3 in a hybrid bilayer membrane on the sensor, mAb at 100, 25, 6 nM in triplicate; αvβ3 immobilized in hybrid bilayer membrane on the sensor; mAb at 100, 25, 6 nM in triplicate
Description: as §1

[7] = target: T2, human αvβ3 receptor on cells or in …; assay: cell-based or functional assay

T1 sequence (P06756 31-1048, form in doubt, chain 1 of 2): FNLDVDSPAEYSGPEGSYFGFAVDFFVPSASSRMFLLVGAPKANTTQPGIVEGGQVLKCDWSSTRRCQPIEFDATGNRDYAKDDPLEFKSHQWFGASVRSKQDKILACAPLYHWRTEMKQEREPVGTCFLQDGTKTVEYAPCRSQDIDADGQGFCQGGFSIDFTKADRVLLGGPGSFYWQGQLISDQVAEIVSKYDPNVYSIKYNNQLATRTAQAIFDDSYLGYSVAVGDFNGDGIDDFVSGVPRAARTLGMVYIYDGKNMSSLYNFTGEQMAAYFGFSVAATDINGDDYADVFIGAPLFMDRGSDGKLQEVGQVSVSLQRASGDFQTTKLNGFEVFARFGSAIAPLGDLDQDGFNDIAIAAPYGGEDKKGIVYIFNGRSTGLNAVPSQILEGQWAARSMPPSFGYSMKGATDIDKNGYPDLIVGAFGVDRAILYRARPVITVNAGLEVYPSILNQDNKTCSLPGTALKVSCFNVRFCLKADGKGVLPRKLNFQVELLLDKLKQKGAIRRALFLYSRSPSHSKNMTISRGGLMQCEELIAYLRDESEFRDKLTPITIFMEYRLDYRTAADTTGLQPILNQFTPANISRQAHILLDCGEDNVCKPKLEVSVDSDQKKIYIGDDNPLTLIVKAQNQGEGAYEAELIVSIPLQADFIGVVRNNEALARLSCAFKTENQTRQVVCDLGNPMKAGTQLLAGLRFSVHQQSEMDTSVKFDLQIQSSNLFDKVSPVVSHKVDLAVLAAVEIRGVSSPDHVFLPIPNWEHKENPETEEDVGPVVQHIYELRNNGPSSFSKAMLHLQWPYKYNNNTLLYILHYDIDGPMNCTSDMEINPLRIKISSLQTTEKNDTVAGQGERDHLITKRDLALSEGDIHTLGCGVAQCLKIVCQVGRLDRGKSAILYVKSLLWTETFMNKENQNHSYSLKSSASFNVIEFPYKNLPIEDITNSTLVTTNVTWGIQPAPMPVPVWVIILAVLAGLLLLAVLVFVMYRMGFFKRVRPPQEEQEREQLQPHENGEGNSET
T1 sequence (P05106 27-788, form in doubt, chain 2 of 2): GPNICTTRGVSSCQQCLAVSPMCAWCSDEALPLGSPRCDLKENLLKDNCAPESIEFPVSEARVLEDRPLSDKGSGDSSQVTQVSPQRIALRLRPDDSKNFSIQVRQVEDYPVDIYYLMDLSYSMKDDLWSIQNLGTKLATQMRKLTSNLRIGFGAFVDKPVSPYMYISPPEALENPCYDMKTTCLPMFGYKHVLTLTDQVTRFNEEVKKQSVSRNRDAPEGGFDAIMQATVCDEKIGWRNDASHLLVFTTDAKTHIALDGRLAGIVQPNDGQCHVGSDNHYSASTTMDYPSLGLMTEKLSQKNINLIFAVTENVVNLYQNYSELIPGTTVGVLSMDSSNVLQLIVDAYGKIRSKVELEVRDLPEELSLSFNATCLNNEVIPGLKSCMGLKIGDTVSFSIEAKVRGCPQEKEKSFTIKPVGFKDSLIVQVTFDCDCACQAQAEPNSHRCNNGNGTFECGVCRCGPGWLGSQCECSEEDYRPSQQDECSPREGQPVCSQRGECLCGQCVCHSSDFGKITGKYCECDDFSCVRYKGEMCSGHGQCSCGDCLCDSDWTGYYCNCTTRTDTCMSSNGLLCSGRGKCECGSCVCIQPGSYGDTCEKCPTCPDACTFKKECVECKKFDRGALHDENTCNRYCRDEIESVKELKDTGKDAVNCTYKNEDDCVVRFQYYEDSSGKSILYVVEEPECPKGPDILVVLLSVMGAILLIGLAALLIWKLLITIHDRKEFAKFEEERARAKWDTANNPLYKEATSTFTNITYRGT
Sequence of rabbit αvβ3 receptor on rabbit smooth muscle cells (A0A5F9DQF7 entry or part of it): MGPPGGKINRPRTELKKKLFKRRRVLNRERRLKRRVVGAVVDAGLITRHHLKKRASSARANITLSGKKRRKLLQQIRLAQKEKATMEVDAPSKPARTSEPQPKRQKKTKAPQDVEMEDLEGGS
T2 sequence (P06756 31-1048, chain 1 of 2): as the sequence (P06756 31-1048, form in doubt, chain 1 of 2) above
T2 sequence (P05106 27-788, chain 2 of 2): as the sequence (P05106 27-788, form in doubt, chain 2 of 2) above

B1: murine monoclonal antibody D12 (antibody, V domains shown)
VH: EIQLQQSGPEVVKPGASVKVSCKASGYAFTSYNMYWVKQSHGKSLEWIGYIDPYNGDTFYNQKFKGKATLTVDKSSSTAYMHLNSLTSEDSAVFYCARQNYGSFAYWGQGTLVTVSA
VL: DIVLTQSPATLSVTPGDSVSLSCRASQSISNHLHWYQQRSHESPRLLIKYASQSISGIPSRFRGSGSGTDFTLNINILETEDFGMYFCQQSNSWPFTFGSGTNLEIKR
notes: also called mAb D12; murine D12
For B1, the Kd [1] was 1.3 nM, the koff [2] was 0.00041 s⁻¹ and the kon [2] was 770000 M⁻¹ s⁻¹. For the same binder, the “fold higher affinity against human αvβ3 than against the rabbit receptor” value [3] was 10 fold, the “IC50, rabbit SMC migration (% control)” value [4] was 18 µg/mL and the Kd [5] was 1 to 3 nM. It also gave a Kd [6] of 0.53 nM.

B2: humanized D12 antibody HZ-D12 (IgG1) (antibody, V domains shown)
VH: QVQLVQSGAEVKKPGASVKVSCKASGYAFTSYNMYWVRQAPGQGLEWIGYIDPYNGDTFYNQKFKGKATLTVDKSTSTAYMELSSLRSEDTAVYYCARQNYGSFAYWGQGTLVTVSS
VL: DIVLTQSPGTLSLSPGERATLSCRASQSISNHLHWYQQKPGQAPRLLIKYASQSISGIPSRFSGSGSGTDFTLTISRLEPEDFAVYYCQQSNSWPFTFGQGTKVEIK
notes: also called HuD12; D12HZHC 1-0 / D12HZLC 1-0
In the case of B2, the “IC50 (read off the curve), adhesion of αvβ3-transfected HEK293 cells to vitronectin (O.D. 600nM)” value [7] is reported as roughly 0.1 µg/mL, the Kd [1] is reported as 1 nM and the “IC50, rabbit SMC migration (% control)” value [4] is reported as 42 µg/mL.

B3: humanized D12 antibody HZ-D12 (IgG4) (antibody, V domains shown)
VH: QVQLVQSGAEVKKPGASVKVSCKASGYAFTSYNMYWVRQAPGQGLEWIGYIDPYNGDTFYNQKFKGKATLTVDKSTSTAYMELSSLRSEDTAVYYCARQNYGSFAYWGQGTLVTVSS
VL: DIVLTQSPGTLSLSPGERATLSCRASQSISNHLHWYQQKPGQAPRLLIKYASQSISGIPSRFSGSGSGTDFTLTISRLEPEDFAVYYCQQSNSWPFTFGQGTKVEIK
In the case of B3, the Kd [1] is reported as 1.1 nM.
